Assays:
[1] = target: FbxwD-FLAG (endogenous locus tagged) (D. discoideum); test: co-IP; FbxwD-FLAG precipitated with anti-FLAG M2 magnetic beads from S21 lysates of phyA+ or phyA– vegetative or slug cells, 4 °C 1 h; Skp1 detected by Western blot (pAb UOK77), densitometry
[2] = target: JcdI-FLAG (endogenous locus tagged) (D. discoideum) (UniProt Q55CL5); test: co-IP; FLAG-JcdI or JcdI-FLAG precipitated with anti-FLAG M2 beads from NP-40 lysates of vegetative or slug cells, 4 °C 1 h, washed in 50 mM Tris-HCl pH 8.0, 150 mM NaCl, 0.2% NP-40; Skp1 detected by Western blot
UniProt Q55CL5, sequence (Q55CL5 entry or part of it): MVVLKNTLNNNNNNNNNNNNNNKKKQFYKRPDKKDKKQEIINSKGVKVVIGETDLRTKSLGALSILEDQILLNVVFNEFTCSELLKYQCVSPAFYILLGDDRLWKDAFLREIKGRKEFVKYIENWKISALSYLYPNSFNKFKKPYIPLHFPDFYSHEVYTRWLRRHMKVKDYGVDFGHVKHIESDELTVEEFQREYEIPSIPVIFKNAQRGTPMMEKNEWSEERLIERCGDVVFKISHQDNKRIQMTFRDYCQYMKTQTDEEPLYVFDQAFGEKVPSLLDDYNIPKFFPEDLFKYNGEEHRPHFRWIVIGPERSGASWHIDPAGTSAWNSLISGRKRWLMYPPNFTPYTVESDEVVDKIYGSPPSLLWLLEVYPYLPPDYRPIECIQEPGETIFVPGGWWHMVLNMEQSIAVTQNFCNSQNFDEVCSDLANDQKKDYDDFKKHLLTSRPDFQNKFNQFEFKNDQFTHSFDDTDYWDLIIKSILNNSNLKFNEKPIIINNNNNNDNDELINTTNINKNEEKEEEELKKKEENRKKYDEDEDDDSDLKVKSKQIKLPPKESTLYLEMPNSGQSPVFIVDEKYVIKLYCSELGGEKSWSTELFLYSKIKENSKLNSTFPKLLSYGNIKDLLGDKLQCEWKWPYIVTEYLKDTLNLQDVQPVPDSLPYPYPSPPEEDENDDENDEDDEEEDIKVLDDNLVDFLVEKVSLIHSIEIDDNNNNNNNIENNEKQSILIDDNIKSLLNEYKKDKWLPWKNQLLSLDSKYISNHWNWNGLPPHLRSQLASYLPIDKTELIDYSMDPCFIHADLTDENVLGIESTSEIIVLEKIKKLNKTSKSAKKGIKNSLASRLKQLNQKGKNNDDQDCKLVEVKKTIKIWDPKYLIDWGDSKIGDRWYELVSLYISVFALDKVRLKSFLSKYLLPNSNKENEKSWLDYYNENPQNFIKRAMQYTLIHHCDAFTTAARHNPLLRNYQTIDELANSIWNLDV

With “Skp1 (endogenous, from phyA+ / gnt1+ cells; hydroxylated and glycosylated) (from UniProt P52285 1-162) (natural protein)” as the substance, how does the fold more Skp1 co-IPed with FbxwD-FLAG, phyA+ versus phyA– slug cells [1] read?
The fold more Skp1 co-IPed with FbxwD-FLAG, phyA+ versus phyA– slug cells was 4 fold.

What about the fold more Skp1 co-IPed with FbxwD-FLAG, phyA+ versus phyA– vegetative cells [1] of the same substance?
Its fold more Skp1 co-IPed with FbxwD-FLAG, phyA+ versus phyA– vegetative cells is 2.5 fold.

What about the fold more Skp1 (Skp1:JcdI ratio) co-IPed with JcdI-FLAG, gnt1+ versus gnt1– vegetative cells [2] of the same substance?
Its fold more Skp1 (Skp1:JcdI ratio) co-IPed with JcdI-FLAG, gnt1+ versus gnt1– vegetative cells is 2 fold.

And the fold preferential interaction with JcdI-FLAG, gnt1+ versus gnt1– slug cells [2]?
Its fold preferential interaction with JcdI-FLAG, gnt1+ versus gnt1– slug cells is 2 fold.

Reference: paper PMC9485057
